For orientation: Kd means the constant that tells how readily two partners part at equilibrium. Higher therefore signals a looser complex.

Assay [1] has as its target T1, extracellular domain of activin receptor type IIB (ActRIIBecd), biotinylated (Homo sapiens (Human), UniProt Q13705 27-117, amino-biotinylated with amine-PEG3-Biotin).
T1 construct: immobilised on a streptavidin-coated sensor chip; also called biotinylated ActRIIBecd; extracellular domain of ActRIIB
T1 sequence: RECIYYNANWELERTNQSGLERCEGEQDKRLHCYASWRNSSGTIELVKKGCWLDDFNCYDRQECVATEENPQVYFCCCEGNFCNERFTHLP
The experiment in a line: BIAcore SPR, biotinylated ActRIIBecd on chip; SD ±15.71 nM. The procedure:
(§1) Biosensor experiments. In one embodiment, experiments were performed on a BIAcore™ T100/T200 instrument (Pharmacia Biosensor AB) in the multichannel mode (serial flow path involving flow cells 1+2+3+4). Flow rate was 10 μl/min; temperature was 25° C.; and data were recorded at 2.5 points/s. All four segments of a sensor chip CMS were coated with streptavidin (Sigma) to a density of 2000 pg/mm² (2000 resonance units) by the aminocoupling procedure. ActRIIBecd (10 mg) and amine-PEG3-Biotin (10 mg, Pierce, Rockford, Ill.) were dissolved in 200 μl H₂O and 10 mg NaCNBH₃ was added to prepare biotinylated ActRIIBecd. The reaction mixture was heated at 70° C. for 24 h, after that a further 10 mg NaCNBH₃ was added and the reaction was heated at 70° C. for another 24 h. After cooling to room temperature, the mixture was desalted with the spin column (3,000 molecular weight cut off (MWCO)). […] Sensograms were recorded during flow of the analyte (the ActRIIBecd-associated polypeptides (i.e., domains) as previously described) first through flow cell 1 (control) then through flow cell 2 (biotinylated ActRIIBecd). […] The sensograms obtained at 1.11, 3.33, 10, 30, and 90 nM analyte were evaluated for equilibrium binding, association rate, and dissociation rate by using the programs supplied with the instrument (BIA evaluation 2.1; Software Handbook. 1995; Pharmacia Biosensor AB).

Assay [2] deals with T1, extracellular domain of activin …. The experiment in a line: BIAcore SPR, biotinylated ActRIIBecd on chip; SD ±18.14 nM. The procedure: as §1
For assay [3] the target is unchanged. The experiment in a line: BIAcore SPR, biotinylated ActRIIBecd on chip; SD ±19.51 nM. The procedure: as §1
(SPR reads the build-up and loss of mass on a sensor chip optically.)

Assay [4] shares this target. The experiment in a line: BIAcore SPR, biotinylated ActRIIBecd on chip; SD ±12.74 nM. The procedure: as §1
For assay [5] the target is unchanged. The experiment in a line: BIAcore SPR, biotinylated ActRIIBecd on chip; SD ±13.64 nM. The procedure: as §1
For assay [6] the target is unchanged. The experiment in a line: BIAcore SPR, biotinylated ActRIIBecd on chip; SD ±12.78 nM. The procedure: as §1
Assay [7] has the same target. The experiment in a line: BIAcore SPR, biotinylated ActRIIBecd on chip; SD ±13.69 nM. The procedure:
as §1

Assay [8] has the same target. The experiment in a line: BIAcore SPR, biotinylated ActRIIBecd on chip; SD ±16.11 nM. The procedure: as §1
For assay [9] the target is unchanged. The experiment in a line: BIAcore SPR, biotinylated ActRIIBecd on chip; SD ±16.51 nM. The procedure: as §1
Assay [10] shares this target. The experiment in a line: BIAcore SPR, biotinylated ActRIIBecd on chip; SD ±19.11 nM. The procedure:
as §1

Assay [11] has the same target. The experiment in a line: BIAcore SPR, biotinylated ActRIIBecd on chip; SD ±12.47 nM. The procedure:
as §1

The target is the same in assay [12]. The experiment in a line: BIAcore SPR, biotinylated ActRIIBecd on chip; SD ±11.79 nM. The procedure:
as §1

Assay [13] shares this target. The experiment in a line: BIAcore SPR, biotinylated ActRIIBecd on chip; SD ±17.84 nM. The procedure: as §1
Assay [14] has the same target. The experiment in a line: BIAcore SPR, biotinylated ActRIIBecd on chip; SD ±12.34 nM. The procedure:
as §1

For assay [15] the target is unchanged. The experiment in a line: BIAcore SPR, biotinylated ActRIIBecd on chip; SD ±12.76 nM. The procedure: as §1
Assay [16] has the same target. The experiment in a line: BIAcore SPR, biotinylated ActRIIBecd on chip; SD ±13.71 nM. The procedure: as §1
The target is the same in assay [17]. The experiment in a line: BIAcore SPR, biotinylated ActRIIBecd on chip; SD ±16.58 nM. The procedure: as §1
Assay [18] has the same target. The experiment in a line: BIAcore SPR, biotinylated ActRIIBecd on chip; SD ±18.67 nM. The procedure:
as §1

For assay [19] the target is unchanged. The experiment in a line: BIAcore SPR, biotinylated ActRIIBecd on chip; SD ±12.89 nM. The procedure: as §1

B1: Recombinant polypeptide of clones 19 + 8 (designed binder)
chain: NSKDPKACCVPTELSAPSPLYLDENEKPVLKNYQDMVVHGCGCRGQAKRKGYKRLKSSCKRHPLY
The molecule B1 came in with a Kd in assay [1] of 33.5 nM.

B2: Recombinant polypeptide of clones 16 + 29 (designed binder)
chain: VDFSDVGWNDWAVAPPGYHAFYCHGECPFPLADHLNSDNHAIVQTLVNSVEPLGGARWEAFDVTDAVQSHRRSQRASRKCCLVLRAVTAS
For the molecule B2, the Kd in assay [2] is 58.7 nM. That is a double-digit nanomolar value.

B3: Recombinant polypeptide of clones 12 + 16 (designed binder)
chain: AQAKHKQYKRLKSSCKRHPLYVDFSDVGWNDWAVAPPGYHAFYCHGECPFPLADHLNSDNHAIVQTLVNSV
In the case of B3, in assay [3], binding was put at a Kd of 67.4 nM.

B4: Recombinant polypeptide of clones 10 + 15 (designed binder)
chain: AQAKHKQRKRLKSSCKRHPLYVDFSDVGWNDWIVAPPGYHAFYCHGECPFPLADHLNSTNHAIVQTLVNSV
Molecule B4 returned a Kd in assay [4] of 31.3 nM.

B5: Recombinant polypeptide of clones 8 + 14 (designed binder)
chain: GQAKRKGYKRLKSSCKRHPLYVDFKDVGWNDHAVAPPGYHAFYCHGECPFPLADHLNSDNHAIVQTKVNSV
In turn, B5 came in with a Kd in assay [5] of 35.1 nM. This lies in the double-digit nanomolar range.

B6: Recombinant polypeptide of clones 15 + 21 (designed binder)
chain: VDFSDVGWNDWIVAPPGYHAFYCHGECPFPLADHLNSTNHAIVQTLVNSVNSKIPKACCVPTELSAISMLYLDENEKVVLKNYQDMVVEGCGCR
Regarding B6, the Kd in assay [6] was determined as 32.6 nM. That is a double-digit nanomolar value.

B7: Recombinant polypeptide of clones 26 + 16 (designed binder)
chain: TYPASPKPMRHSMRSCACCAGGLRNQTGTVVDFSDVGWNDWAVAPPGYHAFYCHGECPFPLADHLNSDNHAIVQTLVNSV
B7 came in with a Kd in assay [7] of 61.7 nM.

B8: Recombinant polypeptide of clones 12 + 28 (designed binder)
chain: AQAKHKQYKRLKSSCKRHPLYEPLGGARWEAFDVTDAVQSHRRSPRASRKCCLGLRAVTAS
The molecule B8 yielded a Kd in assay [8] of 59.1 nM.

B9: Recombinant polypeptide of clones 14 + 8 (designed binder)
chain: VDFKDVGWNDHAVAPPGYHAFYCHGECPFPLADHLNSDNHAIVQTKVNSVGQAKRKGYKRLKSSCKRHPLY
In assay [9], B9 gave a Kd of 33.8 nM.

B10: Recombinant polypeptide of clones 16 + 26 (designed binder)
chain: VDFSDVGWNDWAVAPPGYHAFYCHGECPFPLADHLNSDNHAIVQTLVNSVTYPASPKPMRHSMRSCACCAGGLRNQTGTV
Molecule B10 returned a Kd in [10] of 57.8 nM.

B11: Recombinant polypeptide of clones 12 + 30 (designed binder)
chain: AQAKHKQYKRLKSSCKRHPLYTALDGTRGAQGSGGGGGGGGGGGGGGGGGGGGAGRGHGRRGRSRCSRKSLHVDFKELG
Take B11: in [11], the Kd amounted to 59.1 nM.

B12: Recombinant polypeptide of clones 10 + 21 (designed binder)
chain: AQAKHKQRKRLKSSCKRHPLYNSKIPKACCVPTELSAISMLYLDENEKVVLKNYQDMVVEGCGCR
As to B12, the Kd in [12] was determined as 27.3 nM.

B13: Recombinant polypeptide of clones 24 + 23 (designed binder)
chain: NSKDPKACCVPTELSAISMLYLDENEKVVLKNYQDMVVHGCGCRNSKIPKACCVPTELSAISMLYLDENEKPVLKNYQDMVVEGCGCR
The molecule B13 registered a Kd in [13] of 62.7 nM.

B14: Recombinant polypeptide of clones 12 + 25 (designed binder)
chain: AQAKHKQYKRLKSSCKRHPLYTYPASPKPMRHKMRSCACCAGGLRNRTGTV
In assay [14], B14 yielded a Kd of 51.2 nM. That is a double-digit nanomolar value.

B15: Recombinant polypeptide of clones 21 + 10 (designed binder)
chain: NSKIPKACCVPTELSAISMLYLDENEKVVLKNYQDMVVEGCGCRAQAKHKQRKRLKSSCKRHPLY
In [15], B15 returned a Kd of 30.2 nM.

B16: Recombinant polypeptide of clones 30 + 12 (designed binder)
chain: TALDGTRGAQGSGGGGGGGGGGGGGGGGGGGGAGRGHGRRGRSRCSRKSLHVDFKELGAQAKHKQYKRLKSSCKRHPLY
For the molecule B16, the Kd in [16] came out at 61.1 nM.

B17: Recombinant polypeptide of clones 21 + 15 (designed binder)
chain: NSKIPKACCVPTELSAISMLYLDENEKVVLKNYQDMVVEGCGCRVDFSDVGWNDWIVAPPGYHAFYCHGECPFPLADHLNSTNHAIVQTLVNSV
The molecule B17 showed a Kd in [17] of 31 nM.

B18: Recombinant polypeptide of clones 28 + 12 (designed binder)
chain: EPLGGARWEAFDVTDAVQSHRRSPRASRKCCLGLRAVTASAQAKHKQYKRLKSSCKRHPLY
As to B18, binding in assay [18] was characterised by a dissociation constant (Kd) of 57.9 nM.

B19: Recombinant polypeptide of clones 29 + 16 (designed binder)
chain: EPLGGARWEAFDVTDAVQSHRRSQRASRKCCLVLRAVTASVDFSDVGWNDWAVAPPGYHAFYCHGECPFPLADHLNSDNHAIVQTLVNSV
The molecule B19 displayed a Kd in assay [19] of 54.3 nM.

The values are drawn from patent US20190071480A1 (Biogen, published 2019).
